± gives the uncertainty stated by the source.

First the molecules themselves.
B1: POU domain, class 3, transcription factor 2, residues 262 to 338; numbered along this chain, P20265 (parent)
chain: EDTPTSDDLEQFAKQFKQRRIKLGFTQADVGLALGTLYGNVFSQTTICRFEALQLSFKNMCKLKPLLNKWLEEADSS

The variants in the data set derive from B1. Description: abundance fitness (aPCA) (normalised: wild type 0, dead -1); higher = more abundant; growth selection in yeast, the domain comes from the species named. The settings on record: Homo sapiens.
Consider EDTPTSDDLEQFAKQFKQRCIKLGFTQADVGLALGTLYGNVFSQTTICRFEALQLSFKNMCKLKPLLNKWLEEADSS [R20C], for which the abundance fitness is -1.01 ± 0.18. The same measure for EDTPTSDDLEQFAKQFKSRRIKLGFTQADVGLALGTLYGNVFSQTTICRFEALQLSFKNMCKLKPLLNKWLEEADSS [Q18S]: -0.018 ± 0.037. The value for EDTPTSDDLEQFAKQFKVRRIKLGFTQADVGLALGTLYGNVFSQTTICRFEALQLSFKNMCKLKPLLNKWLEEADSS [Q18V] was -0.145 ± 0.036. The value for EDTPTSDDLEQFAKQFKPRRIKLGFTQADVGLALGTLYGNVFSQTTICRFEALQLSFKNMCKLKPLLNKWLEEADSS [Q18P] was -1.21 ± 0.36; that for EDTPTSDDLEQFAKQFKTRRIKLGFTQADVGLALGTLYGNVFSQTTICRFEALQLSFKNMCKLKPLLNKWLEEADSS [Q18T] was -0.029 ± 0.051. Take EDTPTSDDLEQFAKQFKRRRIKLGFTQADVGLALGTLYGNVFSQTTICRFEALQLSFKNMCKLKPLLNKWLEEADSS [Q18R]: the abundance fitness is -0.077 ± 0.032.

EDTPTSDDLEQFAKQFKYRRIKLGFTQADVGLALGTLYGNVFSQTTICRFEALQLSFKNMCKLKPLLNKWLEEADSS [Q18Y]: the abundance fitness is -0.295 ± 0.17. The same measure for EDTPTSDDLEQFAKQFKQRRICLGFTQADVGLALGTLYGNVFSQTTICRFEALQLSFKNMCKLKPLLNKWLEEADSS [K22C]: -0.042 ± 0.057; for EDTPTSDDLEQFAKQFKQRRIRLGFTQADVGLALGTLYGNVFSQTTICRFEALQLSFKNMCKLKPLLNKWLEEADSS [K22R]: -0.054 ± 0.029; for EDTPTSDDLEQFAKQFKQRRIDLGFTQADVGLALGTLYGNVFSQTTICRFEALQLSFKNMCKLKPLLNKWLEEADSS [K22D]: 0.041 ± 0.047.

EDTPTSDDLEQFAKQFKQRRIMLGFTQADVGLALGTLYGNVFSQTTICRFEALQLSFKNMCKLKPLLNKWLEEADSS [K22M]: the abundance fitness was -0.073 ± 0.046. Consider EDTPTSDDLEQFAKQFKQRRIELGFTQADVGLALGTLYGNVFSQTTICRFEALQLSFKNMCKLKPLLNKWLEEADSS [K22E], for which the abundance fitness worked out at 0.057 ± 0.035.

EDTPTSDDLEQFAKQFKQRRINLGFTQADVGLALGTLYGNVFSQTTICRFEALQLSFKNMCKLKPLLNKWLEEADSS [K22N]: the abundance fitness is -0.117 ± 0.077. The same measure for EDTPTSDDLEQFAKQFKQRRIALGFTQADVGLALGTLYGNVFSQTTICRFEALQLSFKNMCKLKPLLNKWLEEADSS [K22A]: 0.009 ± 0.03; for EDTPTSDDLEQFAKQFKQRRIQLGFTQADVGLALGTLYGNVFSQTTICRFEALQLSFKNMCKLKPLLNKWLEEADSS [K22Q]: -0.028 ± 0.043. The value for EDTPTSDDLEQFAKQFKQRRIFLGFTQADVGLALGTLYGNVFSQTTICRFEALQLSFKNMCKLKPLLNKWLEEADSS [K22F] was -0.096 ± 0.064; that for EDTPTSDDLEQFAKQFKQRRIILGFTQADVGLALGTLYGNVFSQTTICRFEALQLSFKNMCKLKPLLNKWLEEADSS [K22I] was -0.273 ± 0.068; that for EDTPTSDDLEQFAKQFKQRRIPLGFTQADVGLALGTLYGNVFSQTTICRFEALQLSFKNMCKLKPLLNKWLEEADSS [K22P] was -0.958 ± 0.18. The same measure for EDTPTSDDLEQFAKQFKQRRIHLGFTQADVGLALGTLYGNVFSQTTICRFEALQLSFKNMCKLKPLLNKWLEEADSS [K22H]: -0.168 ± 0.064; for EDTPTSDDLEQFAKQFKQRRILLGFTQADVGLALGTLYGNVFSQTTICRFEALQLSFKNMCKLKPLLNKWLEEADSS [K22L]: -0.04 ± 0.035.

Regarding EDTPTSDDLEQFAKQFKQRRMKLGFTQADVGLALGTLYGNVFSQTTICRFEALQLSFKNMCKLKPLLNKWLEEADSS [I21M], the abundance fitness amounted to 0.01 ± 0.039. The value for EDTPTSDDLEQFAKQFKQRRHKLGFTQADVGLALGTLYGNVFSQTTICRFEALQLSFKNMCKLKPLLNKWLEEADSS [I21H] was -0.267 ± 0.08.

Regarding EDTPTSDDLEQFAKQFKQRREKLGFTQADVGLALGTLYGNVFSQTTICRFEALQLSFKNMCKLKPLLNKWLEEADSS [I21E], the abundance fitness was -0.004 ± 0.037. The value for EDTPTSDDLEQFAKQFKQRRAKLGFTQADVGLALGTLYGNVFSQTTICRFEALQLSFKNMCKLKPLLNKWLEEADSS [I21A] was -0.236 ± 0.037; that for EDTPTSDDLEQFAKQFKQRRSKLGFTQADVGLALGTLYGNVFSQTTICRFEALQLSFKNMCKLKPLLNKWLEEADSS [I21S] was -0.337 ± 0.04; that for EDTPTSDDLEQFAKQFKQRRYKLGFTQADVGLALGTLYGNVFSQTTICRFEALQLSFKNMCKLKPLLNKWLEEADSS [I21Y] was -0.489 ± 0.088. The same measure for EDTPTSDDLEQFAKQFKQRRKKLGFTQADVGLALGTLYGNVFSQTTICRFEALQLSFKNMCKLKPLLNKWLEEADSS [I21K]: -0.112 ± 0.058; for EDTPTSDDLEQFAKQFKQRRCKLGFTQADVGLALGTLYGNVFSQTTICRFEALQLSFKNMCKLKPLLNKWLEEADSS [I21C]: -0.204 ± 0.05; for EDTPTSDDLEQFAKQFKQRRLKLGFTQADVGLALGTLYGNVFSQTTICRFEALQLSFKNMCKLKPLLNKWLEEADSS [I21L]: -0.015 ± 0.03. The value for EDTPTSDDLEQFAKQFKQRRQKLGFTQADVGLALGTLYGNVFSQTTICRFEALQLSFKNMCKLKPLLNKWLEEADSS [I21Q] was 0.005 ± 0.04; that for EDTPTSDDLEQFAKQFKQRRRKLGFTQADVGLALGTLYGNVFSQTTICRFEALQLSFKNMCKLKPLLNKWLEEADSS [I21R] was -0.195 ± 0.029; that for EDTPTSDDLEQFAKQFKQRRPKLGFTQADVGLALGTLYGNVFSQTTICRFEALQLSFKNMCKLKPLLNKWLEEADSS [I21P] was -0.805 ± 0.12. Consider EDTPTSDDLEQFAKQFKQRRDKLGFTQADVGLALGTLYGNVFSQTTICRFEALQLSFKNMCKLKPLLNKWLEEADSS [I21D], for which the abundance fitness was -0.567 ± 0.094.

With EDTPTSDDLEQFAKQFKQRRTKLGFTQADVGLALGTLYGNVFSQTTICRFEALQLSFKNMCKLKPLLNKWLEEADSS [I21T], the abundance fitness is -0.179 ± 0.053. The value for EDTPTSDDLEQFAKQFKQRRNKLGFTQADVGLALGTLYGNVFSQTTICRFEALQLSFKNMCKLKPLLNKWLEEADSS [I21N] was -0.311 ± 0.075.

For the variant EDTPTSDDLEQFAKQFKQRRVKLGFTQADVGLALGTLYGNVFSQTTICRFEALQLSFKNMCKLKPLLNKWLEEADSS [I21V], the abundance fitness is -0.058 ± 0.031.

(Values after the Human Domainome abundance scans (Beltran et al. 2025).)
